From patent publication US20250011363A1, “OPTIMIZED SHORTENED PEPTIDE THAT BINDS TO ACETYLCHOLINE RECEPTOR, AND USE THEREOF” (SKINMED CO., LTD., priority 2021, published 2025)

biological target: acetylcholine receptor (Homo sapiens, UniProt P02708); test: SPR binding affinity (RU) of optimized 5mer/6mer/7mer peptides, Examples 6-7; conditions: 6mer-1 Top sequence; SPR; peptides tested at 10 μM
Method: Based on the frequencies of occurrence of the top 7 amino acids from Table 7 in Example 5, 600 peptides comprising these amino acids (top combinations) and those comprising the 13 less frequently occurring amino acids (bottom combinations) were synthesized for each series of 5mer, 6mer-1, and 6mer-2. The binding affinity of each sequence for the acetylcholine receptor was measured using Surface Plasmon Resonance (SPR) analysis method. The peptides were tested at a concentration of 10 μM. Additionally, the average binding affinities of the top and bottom combinations in each series are depicted in FIGS. 5-7.
Representative peptides identified in Example 6, two in each library, including 5mers (73, 311) and 6mers-1 (43, 210) and 6mers-2 (136, 233), were compared with the pre-optimized 6mer, 5mer-ND, and Synake.

Chain of acetylcholine receptor (P02708 21-457): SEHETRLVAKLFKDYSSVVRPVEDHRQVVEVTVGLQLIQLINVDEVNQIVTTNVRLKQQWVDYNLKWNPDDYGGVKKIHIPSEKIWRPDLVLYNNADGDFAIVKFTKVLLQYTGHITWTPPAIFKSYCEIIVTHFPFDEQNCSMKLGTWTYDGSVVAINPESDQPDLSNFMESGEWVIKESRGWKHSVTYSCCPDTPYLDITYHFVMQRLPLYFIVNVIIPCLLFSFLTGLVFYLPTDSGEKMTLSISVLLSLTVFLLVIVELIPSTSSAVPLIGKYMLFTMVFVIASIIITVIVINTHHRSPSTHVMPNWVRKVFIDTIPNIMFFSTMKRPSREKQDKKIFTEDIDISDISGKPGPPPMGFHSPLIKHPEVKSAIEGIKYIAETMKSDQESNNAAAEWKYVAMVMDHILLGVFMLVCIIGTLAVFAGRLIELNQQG

Substance | Binding affinity
6mer-1-305 (RKWISR) | 153 Ru
6mer-1-307 (KRWYRR) | 153 Ru
6mer-1-304 (RKLYSR) | 121 Ru

same assay, conditions: 6mer-2 Top sequence; SPR; peptides tested at 10 μM

Substance | Binding affinity
6mer-2-29 (RSQRKR) | 142 Ru
6mer-2-112 (RLQQKR) | 142 Ru
6mer-2-82 (RGVQKK) | 124 Ru
6mer-2-73 (RLYTKR) | 139 Ru
6mer-2-149 (KGQQRK) | 127 Ru
6mer-2-55 (RLFYKK) | 125 Ru
6mer-2-6 (KSICRR) | 122 Ru
6mer-2-151 (KQLRKR) | 142 Ru
6mer-2-107 (RGVYRK) | 144 Ru
6mer-2-68 (KGRRRK) | 142 Ru
6mer-2-24 (KGIQRK) | 141 Ru
6mer-2-50 (RSQSKR) | 125 Ru

same assay, conditions: SPR, Resonance Units; 5mer Bottom sequence (bottom combinations); peptides tested at 10 μM

Substance | Binding affinity
5mer-702 (KISHK) | 30 Ru
5mer-1043 (KFEMK) | 15 Ru
5mer-710 (KEKAR) | 21 Ru
5mer-1109 (KCHPK) | 14 Ru
5mer-740 (RMMGK) | 21 Ru
5mer-806 (RKMFR) | 17 Ru
5mer-659 (KIHEK) | 22 Ru
5mer-945 (RYEKR) | 23 Ru
5mer-1061 (KDSFR) | 24 Ru
5mer-1029 (KADIK) | 25 Ru
5mer-912 (KKMGR) | 16 Ru
5mer-706 (RKMAK) | 27 Ru
5mer-989 (RCTAR) | 31 Ru
5mer-764 (KTWPK) | 19 Ru
5mer-601 (RFCFK) | 13 Ru
5mer-1080 (RYTHK) | 25 Ru
5mer-753 (RKTPK) | 30 Ru
5mer-1057 (RFDPK) | 13 Ru
5mer-1104 (RETHK) | 12 Ru
5mer-767 (RFHFK) | 12 Ru
5mer-798 (RETMK) | 13 Ru
5mer-1097 (KPDIR) | 28 Ru
5mer-636 (KDKGR) | 11 Ru
5mer-633 (RAAKR) | 20 Ru

same assay, conditions: SPR, Resonance Units; peptides tested at 10 μM; 6mer-1 Bottom sequence

Substance | Binding affinity
6mer-1-1085 (KREAMK) | 33 Ru
6mer-1-1169 (RKMDIR) | 32 Ru
6mer-1-1043 (KRAAHR) | 30 Ru
6mer-1-1050 (KKMEDR) | 38 Ru
6mer-1-1119 (KRIWVR) | 31 Ru
6mer-1-1154 (RKCEKR) | 41 Ru
6mer-1-1045 (KKTPGR) | 27 Ru
6mer-1-1167 (KRHMMK) | 42 Ru
6mer-1-1036 (KKITFR) | 21 Ru
6mer-1-1176 (KKADHK) | 21 Ru
6mer-1-1152 (RKYKEK) | 23 Ru
6mer-1-1033 (KRHMVK) | 30 Ru

same assay, conditions: SPR, Resonance Units; peptides tested at 10 μM; 6mer-1 Bottom sequence (Table 11)

Substance | Binding affinity
6mer-1-621 (RRMAGK) | 30 Ru
6mer-1-709 (KKFKPK) | 29 Ru
6mer-1-714 (KRTSFK) | 25 Ru
6mer-1-645 (RRTTIR) | 33 Ru
6mer-1-646 (RRCTGK) | 33 Ru
6mer-1-671 (KKNMVR) | 11 Ru
6mer-1-771 (KKMDIK) | 17 Ru
6mer-1-722 (RRNKVR) | 12 Ru
6mer-1-707 (KRFWPK) | 26 Ru

same assay, conditions: SPR, Resonance Units; peptides tested at 10 μM; 6mer-2 Bottom sequence

Substance | Binding affinity
6mer-2-846 (RFSFKR) | 30 Ru
6mer-2-734 (KHCHRR) | 17 Ru
6mer-2-899 (KKMVKR) | 13 Ru
6mer-2-668 (RFCNKK) | 13 Ru
6mer-2-684 (RYTMKK) | 14 Ru
6mer-2-696 (KFTKKK) | 20 Ru
6mer-2-679 (RYSAKK) | 20 Ru
6mer-2-921 (RPKAKK) | 22 Ru
6mer-2-994 (KYCIKK) | 41 Ru
6mer-2-778 (RNAPKK) | 21 Ru

same assay, conditions: SPR, Resonance Units; peptides tested at 10 μM; 6mer-2 Top sequence

Substance | Binding affinity
6mer-2-573 (KLYLRR) | 121 Ru
6mer-2-457 (RRVYKR) | 146 Ru
6mer-2-436 (KVLYKR) | 148 Ru
6mer-2-426 (KGQRRK) | 141 Ru
6mer-2-562 (RQQRKR) | 136 Ru
6mer-2-421 (KVICRK) | 124 Ru
6mer-2-445 (RLVCKR) | 145 Ru
6mer-2-518 (KLVTKK) | 151 Ru
6mer-2-526 (RVLLRK) | 144 Ru

same assay, conditions: SPR, Resonance Units; peptides tested at 10 μM; 6mer-2 Top sequence (Table 12)

Substance | Binding affinity
6mer-2-347 (RRYSKK) | 148 Ru
6mer-2-259 (RVQSKR) | 128 Ru
6mer-2-369 (KVVRRR) | 145 Ru
6mer-2-227 (KLQRRK) | 147 Ru
6mer-2-204 (RRVQKR) | 142 Ru
6mer-2-219 (RGVSKR) | 153 Ru

same assay, conditions: SPR, peptides at 10 μM; 6mer-2 Bottom sequence

Substance | Binding affinity
6mer-2-1168 (KMKPKK) | 41 Ru
6mer-2-1039 (RNHFRK) | 26 Ru
6mer-2-1167 (RCAPKR) | 27 Ru
6mer-2-1143 (KACIKK) | 42 Ru
6mer-2-1107 (RAHERK) | 29 Ru
6mer-2-1004 (RDTHKR) | 38 Ru
6mer-2-1041 (RACDKR) | 22 Ru

same assay, conditions: SPR, peptides tested at 10 μM; 5mer Top sequence

Substance | Binding affinity
5mer-126 (RGVTK) | 61 Ru
5mer-20 (RGRYK) | 78 Ru
5mer-10 (RVQRR) | 55 Ru
5mer-152 (RRRRR) | 56 Ru
5mer-210 (KVYYR) | 67 Ru
5mer-313 (RSQLK) | 75 Ru
5mer-110 (KRRLK) | 76 Ru
5mer-179 (RLYTK) | 55 Ru
5mer-401 (RGVLR) | 52 Ru
5mer-183 (KRVYR) | 64 Ru
5mer-363 (KRVRK) | 59 Ru
5mer-303 (KGRYR) | 87 Ru
5mer-136 (RRIYK) | 75 Ru
5mer-37 (RRLSR) | 72 Ru
5mer-134 (RQFSK) | 61 Ru
5mer-339 (KWVRK) | 87 Ru
5mer-480 (RWYLR) | 75 Ru

same assay, conditions: SPR, peptides tested at 10 μM; 5mer Top sequence (top combinations)

Substance | Binding affinity
5mer-551 (RWQYR) | 59 Ru
5mer-271 (RGRYR) | 68 Ru
5mer-236 (KRRCK) | 81 Ru
5mer-267 (KRLLK) | 66 Ru

same assay, conditions: SPR, peptides tested at 10 μM; 6mer-1 Bottom sequence (Table 11)

Substance | Binding affinity
6mer-1-847 (KKYNHK) | 20 Ru
6mer-1-915 (RKDTWK) | 27 Ru
6mer-1-967 (RRTEDR) | 24 Ru
6mer-1-889 (KRIMEK) | 25 Ru
6mer-1-852 (KRASVK) | 19 Ru
6mer-1-844 (KKPMNR) | 28 Ru
6mer-1-832 (RKYWGK) | 12 Ru

same assay, conditions: SPR, peptides tested at 10 μM; 6mer-1 Top sequence

Substance | Binding affinity
6mer-1-433 (RKQQYR) | 154 Ru
6mer-1-463 (KRSFRK) | 153 Ru
6mer-1-547 (RKVQQR) | 148 Ru
6mer-1-420 (KKGQYK) | 148 Ru
6mer-1-522 (RKRRLR) | 126 Ru
6mer-1-429 (RRQRRK) | 135 Ru
6mer-1-451 (RKVRLR) | 153 Ru

same assay, conditions: SPR, peptides tested at 10 μM; 6mer-1 Top sequence (top combinations)

Substance | Binding affinity
6mer-1-41 (RKGITK) | 122 Ru
6mer-1-114 (RRQITK) | 153 Ru
6mer-1-51 (RRVLYK) | 127 Ru
6mer-1-24 (RKVIRK) | 142 Ru
6mer-1-79 (KRLFCK) | 137 Ru
6mer-1-13 (KRQIQR) | 147 Ru
6mer-1-100 (RKWISK) | 146 Ru
6mer-1-158 (RRLIYR) | 131 Ru
6mer-1-117 (KRLFTR) | 142 Ru

same assay, conditions: SPR; XRRQRR-6mer and RRQRRX-6mer

Substance | Binding affinity, relative value to the RRQRR sequence
3605 (PRRQRR) [compound 3605] | 133
3617 (RRRQRR) [compound 3617] | 189
3625 (RRQRRP) [compound 3625] | 137

same assay, conditions: SPR; peptides tested at 10 μM; 5mer Bottom sequence

Substance | Binding affinity
5mer-1163 (KKSKR) | 12 Ru
5mer-1152 (KENFK) | 18 Ru
5mer-1168 (RHHWR) | 31 Ru
5mer-1151 (KTNAR) | 26 Ru
5mer-900 (RHSVK) | 29 Ru
5mer-1149 (KETDR) | 25 Ru
5mer-880 (RCDKK) | 17 Ru
